Values of other authors in article PMC2880562.

Molecular target: Arginine repressor ArgR (trimer) (Escherichia coli) (UniProt P0A6D0)
Assay: analytical ultracentrifugation

Arginine repressor ArgR (trimer) (from UniProt P0A6D0)
Kd: < 2.5 nM
